*1 amine or outer side, *2 acyl side, *3 side chain or, on linkers, in order; H or OH if unused. [ ]: non-standard residue; d: D form. TyrEtNAc = L-tyrosine O-ethyl acetamide, (S)-3-(4-(2-acetamidoethoxy)phenyl)-2-aminopropanoic acid, CC(=O)NCCOc1ccc(C[C@H](N[*:1])C(=O)[*:2])cc1; DapAc = (S)-3-acetamido-2-aminopropanoic acid, CC(=O)NC[C@H](N[*:1])C(=O)[*:2]; Phe(4-(4-Ac-piperazinyl)) = CC(=O)N1CCN(c2ccc(C[C@H](N)C(=O)O)cc2)CC1; Pro(trans-4-NH2) = O=C([C@@H]1C[C@@H](N[*:3])CN1[*:1])[*:2]; Bip(4'-COOH) = N[C@@H](Cc1ccc(-c2ccc(C(=O)O)cc2)cc1)C(=O)O; 1Nal(3S-Me) = C[C@@H](c1cccc2ccccc12)[C@H](N)C(=O)O; Trp(6-Cl) = N[C@@H](Cc1c[nH]c2cc(Cl)ccc12)C(=O)O; Phe(4-COOH) = N[C@@H](Cc1ccc(C(=O)O)cc1)C(=O)O; Trp(7-aza) = N[C@@H](Cc1c[nH]c2ncccc12)C(=O)O; h3Pal(5-CN) = N#Cc1cncc(CC[C@H](N)C(=O)O)c1; hTyr = N[C@@H](CCc1ccc(O)cc1)C(=O)O; hCha = N[C@@H](CCC1CCCCC1)C(=O)O; Cha = N[C@@H](CC1CCCCC1)C(=O)O; dDab = NCC[C@@H](N)C(=O)O; Orn = NCCC[C@H](N)C(=O)O; dDap = NC[C@@H](N)C(=O)O; dNMeA = CN[C@H](C)C(=O)O; Dab = NCC[C@H](N)C(=O)O; Dap = NC[C@H](N)C(=O)O
target: Recombinant human IL-1β (BioLegend 579404) (human, UniProt P01584 117-269); assay: cell-based or functional assay

| Binder | MRC5 IC50 |
| --- | --- |
| cyclo([Phe(4-(4-Ac-piperazinyl))]W[Phe(4-COOH)]G[Pro(trans-4-NH2)][1Nal(3S-Me)]D[dNMeA]G[Bip(4'-COOH)]KL[dA][hCha]) (SMILES CC(=O)N1CCN(c2ccc(C[C@@H]3NC(=O)[C@H](CCC4CCCCC4)NC(=O)[C@@H](C)NC(=O)[C@H](CC(C)C)NC(=O)[C@H](CCCCN)NC(=O)[C@H](Cc4ccc(-c5ccc(C(=O)O)cc5)cc4)NC(=O)CNC(=O)[C@@H](C)N(C)C(=O)[C@H](CC(=O)O)NC(=O)[C@H]([C@@H](C)c4cccc5ccccc45)NC(=O)[C@@H]4C[C@@H](N)CN4C(=O)CNC(=O)[C@H](Cc4ccc(C(=O)O)cc4)NC(=O)[C@H](Cc4c[nH]c5ccccc45)NC3=O)cc2)CC1) [SEQ ID NO: 207 (Example No. 207)] | 0.011 nM |
| cyclo([Phe(4-(4-Ac-piperazinyl))]W[Phe(4-COOH)]G[Pro(trans-4-NH2)][1Nal(3S-Me)]D[dNMeA]G[Bip(4'-COOH)][Orn]L[dA][hCha]) (SMILES CC(=O)N1CCN(c2ccc(C[C@@H]3NC(=O)[C@H](CCC4CCCCC4)NC(=O)[C@@H](C)NC(=O)[C@H](CC(C)C)NC(=O)[C@H](CCCN)NC(=O)[C@H](Cc4ccc(-c5ccc(C(=O)O)cc5)cc4)NC(=O)CNC(=O)[C@@H](C)N(C)C(=O)[C@H](CC(=O)O)NC(=O)[C@H]([C@@H](C)c4cccc5ccccc45)NC(=O)[C@@H]4C[C@@H](N)CN4C(=O)CNC(=O)[C@H](Cc4ccc(C(=O)O)cc4)NC(=O)[C@H](Cc4c[nH]c5ccccc45)NC3=O)cc2)CC1) [SEQ ID NO: 209 (Example No. 209)] | 0.009 nM |
| cyclo([Phe(4-(4-Ac-piperazinyl))]W[Phe(4-COOH)]G[Pro(trans-4-NH2)][1Nal(3S-Me)]D[dNMeA]G[Bip(4'-COOH)][DapAc]L[dDap][h3Pal(5-CN)]) (SMILES CC(=O)NC[C@@H]1NC(=O)[C@H](Cc2ccc(-c3ccc(C(=O)O)cc3)cc2)NC(=O)CNC(=O)[C@@H](C)N(C)C(=O)[C@H](CC(=O)O)NC(=O)[C@H]([C@@H](C)c2cccc3ccccc23)NC(=O)[C@@H]2C[C@@H](N)CN2C(=O)CNC(=O)[C@H](Cc2ccc(C(=O)O)cc2)NC(=O)[C@H](Cc2c[nH]c3ccccc23)NC(=O)[C@H](Cc2ccc(N3CCN(C(C)=O)CC3)cc2)NC(=O)[C@H](CCc2cncc(C#N)c2)NC(=O)[C@@H](CN)NC(=O)[C@H](CC(C)C)NC1=O) [SEQ ID NO: 205 (Example No. 205)] | 0.01 nM |
| cyclo([TyrEtNAc][Trp(6-Cl)][Phe(4-COOH)]G[Pro(trans-4-NH2)][1Nal(3S-Me)]D[dNMeA]G[Bip(4'-COOH)][Trp(7-aza)]S[dDab][hCha]) (SMILES CC(=O)NCCOc1ccc(C[C@@H]2NC(=O)[C@H](CCC3CCCCC3)NC(=O)[C@@H](CCN)NC(=O)[C@H](CO)NC(=O)[C@H](Cc3c[nH]c4ncccc34)NC(=O)[C@H](Cc3ccc(-c4ccc(C(=O)O)cc4)cc3)NC(=O)CNC(=O)[C@@H](C)N(C)C(=O)[C@H](CC(=O)O)NC(=O)[C@H]([C@@H](C)c3cccc4ccccc34)NC(=O)[C@@H]3C[C@@H](N)CN3C(=O)CNC(=O)[C@H](Cc3ccc(C(=O)O)cc3)NC(=O)[C@H](Cc3c[nH]c4cc(Cl)ccc34)NC2=O)cc1) [SEQ ID NO: 210 (Example No. 210)] | 0.02 nM |
| cyclo([Phe(4-(4-Ac-piperazinyl))]W[Phe(4-COOH)]G[Pro(trans-4-NH2)][1Nal(3S-Me)]D[dNMeA]G[Bip(4'-COOH)][LysAc]L[dA][h3Pal(5-CN)]) [SEQ ID NO: 208 (Example No. 208)] | 0.018 nM |
| cyclo([Phe(4-(4-Ac-piperazinyl))]W[Phe(4-COOH)]G[Pro(trans-4-NH2)][1Nal(3S-Me)]D[dNMeA]G[Bip(4'-COOH)][Dab]L[dA][hCha]) (SMILES CC(=O)N1CCN(c2ccc(C[C@@H]3NC(=O)[C@H](CCC4CCCCC4)NC(=O)[C@@H](C)NC(=O)[C@H](CC(C)C)NC(=O)[C@H](CCN)NC(=O)[C@H](Cc4ccc(-c5ccc(C(=O)O)cc5)cc4)NC(=O)CNC(=O)[C@@H](C)N(C)C(=O)[C@H](CC(=O)O)NC(=O)[C@H]([C@@H](C)c4cccc5ccccc45)NC(=O)[C@@H]4C[C@@H](N)CN4C(=O)CNC(=O)[C@H](Cc4ccc(C(=O)O)cc4)NC(=O)[C@H](Cc4c[nH]c5ccccc45)NC3=O)cc2)CC1) [SEQ ID NO: 203 (Example No. 203)] | 0.012 nM |
| cyclo([Phe(4-(4-Ac-piperazinyl))]W[Phe(4-COOH)]G[Pro(trans-4-NH2)][1Nal(3S-Me)]D[dNMeA]G[Bip(4'-COOH)][Dap]L[dA][hCha]) (SMILES CC(=O)N1CCN(c2ccc(C[C@@H]3NC(=O)[C@H](CCC4CCCCC4)NC(=O)[C@@H](C)NC(=O)[C@H](CC(C)C)NC(=O)[C@H](CN)NC(=O)[C@H](Cc4ccc(-c5ccc(C(=O)O)cc5)cc4)NC(=O)CNC(=O)[C@@H](C)N(C)C(=O)[C@H](CC(=O)O)NC(=O)[C@H]([C@@H](C)c4cccc5ccccc45)NC(=O)[C@@H]4C[C@@H](N)CN4C(=O)CNC(=O)[C@H](Cc4ccc(C(=O)O)cc4)NC(=O)[C@H](Cc4c[nH]c5ccccc45)NC3=O)cc2)CC1) [SEQ ID NO: 206 (Example No. 206)] | 0.015 nM |
| cyclo([Phe(4-(4-Ac-piperazinyl))]W[Phe(4-COOH)]G[Pro(trans-4-NH2)][1Nal(3S-Me)]D[dNMeA]G[Bip(4'-COOH)][Cha]G[dDab][hTyr]) (SMILES CC(=O)N1CCN(c2ccc(C[C@@H]3NC(=O)[C@H](CCc4ccc(O)cc4)NC(=O)[C@@H](CCN)NC(=O)CNC(=O)[C@H](CC4CCCCC4)NC(=O)[C@H](Cc4ccc(-c5ccc(C(=O)O)cc5)cc4)NC(=O)CNC(=O)[C@@H](C)N(C)C(=O)[C@H](CC(=O)O)NC(=O)[C@H]([C@@H](C)c4cccc5ccccc45)NC(=O)[C@@H]4C[C@@H](N)CN4C(=O)CNC(=O)[C@H](Cc4ccc(C(=O)O)cc4)NC(=O)[C@H](Cc4c[nH]c5ccccc45)NC3=O)cc2)CC1) [SEQ ID NO: 202 (Example No. 202)] | 0.029 nM |
| cyclo([Phe(4-(4-Ac-piperazinyl))]W[Phe(4-COOH)]G[Pro(trans-4-NH2)][1Nal(3S-Me)]D[dNMeA]G[Bip(4'-COOH)][DapAc]K[dA][h3Pal(5-CN)]) (SMILES CC(=O)NC[C@@H]1NC(=O)[C@H](Cc2ccc(-c3ccc(C(=O)O)cc3)cc2)NC(=O)CNC(=O)[C@@H](C)N(C)C(=O)[C@H](CC(=O)O)NC(=O)[C@H]([C@@H](C)c2cccc3ccccc23)NC(=O)[C@@H]2C[C@@H](N)CN2C(=O)CNC(=O)[C@H](Cc2ccc(C(=O)O)cc2)NC(=O)[C@H](Cc2c[nH]c3ccccc23)NC(=O)[C@H](Cc2ccc(N3CCN(C(C)=O)CC3)cc2)NC(=O)[C@H](CCc2cncc(C#N)c2)NC(=O)[C@@H](C)NC(=O)[C@H](CCCCN)NC1=O) [SEQ ID NO: 204 (Example No. 204)] | 0.009 nM |

Reference: patent US20230406885A1, “CYCLIC PEPTIDES FOR TRAPPING INTERLEUKIN-1 BETA” (MERCK SHARP & DOHME LLC, priority 2022, published 2023)
